Target: T1, Androgen receptor (AR) (Homo sapiens?) (UniProt P10275)
T1 sequence: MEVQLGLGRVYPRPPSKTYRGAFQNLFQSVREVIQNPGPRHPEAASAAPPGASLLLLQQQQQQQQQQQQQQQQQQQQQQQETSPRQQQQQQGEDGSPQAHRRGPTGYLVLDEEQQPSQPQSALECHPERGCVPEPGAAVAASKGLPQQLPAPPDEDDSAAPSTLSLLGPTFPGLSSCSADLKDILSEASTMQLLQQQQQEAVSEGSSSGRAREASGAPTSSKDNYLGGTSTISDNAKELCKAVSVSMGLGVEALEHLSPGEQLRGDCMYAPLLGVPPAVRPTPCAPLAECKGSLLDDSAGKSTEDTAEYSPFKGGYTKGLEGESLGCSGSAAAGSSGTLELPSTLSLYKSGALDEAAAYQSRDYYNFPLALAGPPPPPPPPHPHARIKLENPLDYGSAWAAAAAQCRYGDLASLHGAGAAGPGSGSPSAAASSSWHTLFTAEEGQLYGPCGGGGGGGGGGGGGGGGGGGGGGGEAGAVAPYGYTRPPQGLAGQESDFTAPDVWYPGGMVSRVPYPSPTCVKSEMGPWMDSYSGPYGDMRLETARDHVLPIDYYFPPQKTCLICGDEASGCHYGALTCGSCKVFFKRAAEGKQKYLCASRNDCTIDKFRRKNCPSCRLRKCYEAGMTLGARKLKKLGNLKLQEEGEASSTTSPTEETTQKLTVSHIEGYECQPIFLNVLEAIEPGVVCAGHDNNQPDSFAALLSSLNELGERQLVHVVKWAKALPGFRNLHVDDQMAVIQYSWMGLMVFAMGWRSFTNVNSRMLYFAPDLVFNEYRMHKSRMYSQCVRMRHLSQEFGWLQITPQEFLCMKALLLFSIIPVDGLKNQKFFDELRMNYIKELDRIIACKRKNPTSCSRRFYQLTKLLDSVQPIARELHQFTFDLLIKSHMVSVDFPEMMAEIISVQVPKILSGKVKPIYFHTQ
Experiment: pulldown
Details: RIP; not significantly above background SLNCR

## SLNCR1 delta 568-637
  binding signal (fold enrichment): 14
